Data on 1 molecule can be found in US20070196377A1 (Daiichi Sankyo, published 2007).

This assay deals with Rac1 expressed as an N-terminal GST-fusion protein (Bos taurus (Bovine), UniProt P62998 1-189). Description: GST pull-down, anti-FLAG Western blot. As for the experimental part:
Each cell lysate was subjected to a pull-down assay for detecting the binding of the hj03796 DH/PH, or the proto-Db1 DH/PH, to a Rho family protein. 300 μL of each cell lysate, 20 μL of Glutathione Sepharose 4B in the lysis buffer, and 100 μL of the lysis buffer were mixed. Each sample was prepared in such a way that the final concentration of MgCl₂ and dithiothreitol (DTT) was 1 mM. After reacting at 4° C. for 1 hour with rotating by rotator, each sample washed three times with 1 mL of cold lysis buffer (the final concentration of MgCl₂ was 1 mM) by centrifigation at 1,000 rpm for 15 seconds at 4° C. After washing and removing the supernatant, the Glutathione Sepharose 4B was added with 40 μL of a solution that was prepared by mixing SDS-PAGE sample buffer (the same composition as in Example 2) with an equal volume of the lysis buffer. After that, it was mixed with a mixer and subjected to a heat treatment at 100° C. for 5 minutes, to prepare a sample for electrophoresis. SDS-polyacrylamide gel electrophoresis was carried out, and then the gel was equilibrated for 5 minutes or more in a blotting buffer (the same composition as in Example 2). The proteins were transferred onto a PVDF membrane. After blotting, the PVDF membrane was subjected to blocking at 4° C. overnight, in TBS-T+BA (the same composition as in Example 2). […]
(In general: A western blot detects proteins with antibodies after separation by electrophoresis.)

B1: proto-Db1 DH/PH (C-terminal FLAG-tagged protein) (other)
chain: MAVLKNHVLNELIQTERVYVRELYTVLLGYRAEMDNPEMFDLMPPLLRNKKDILFGNMAEIYEFHNDIFLSSLENCAHAPERVGPCFLERKDDFQMYAKYCQNKPRSETIWRKYSECAFFQECQRKLKHRLRLDSYLLKPVQRITKYQLLLKELLKYSKDCEGSALLKKALDAMLDLLKSVNDSMHQIAINGYIGNLNELGKMIMQGGFSVWIGHKKGATKMKDLARFKPMQRHLFLYEKAIVFCKRRVESGEGSDRYPSYSFKHCWKMDEVGITEYVKGDNRKFEIWYGEKEEVYIVQASNVDVKMTWLKEIRNILLKQ
notes: Positive control; also called DH/PH domain of proto Db1; deletion mutant of proto-Db1; not shown: C-terminal FLAG tag of vector pFLAG-CMV5a
Take B1: the binding result is given as “no binding”.
